Experimental data taken from article PMC5571939.

Assays:
[1] = target: HL-Munc18c (mouse) (UniProt Q60770); experiment: BLI; HL-Munc18c immobilised on Ni-NTA biosensors; de-tagged Sx4 constructs 25–400 nM in solution; BLItz; 1:1 fit
[2] = target: Alexa488-labeled VAMP2 E78C (GST-cleaved) (rat) (UniProt P63045); experiment: fluorescence polarisation; SNARE complex formation by fluorescence anisotropy, all in solution: 700 nM SNAP23, 100 nM Alexa488-labeled VAMP2, 700 nM Sx4 variant, no Munc18c; 25°C; 25 mM HEPES pH 8.0, 200 mM NaCl, 1 mM TCEP, 2% glycerol
[3] = target: Alexa488-labeled VAMP2 E78C (GST-cleaved) (rat) (UniProt P63045); experiment: fluorescence polarisation; SNARE complex formation by fluorescence anisotropy, all in solution: 700 nM SNAP23, 100 nM Alexa488-labeled VAMP2, 700 nM Sx4 variant, in the presence of 500 nM HMunc18c; 25°C; 25 mM HEPES pH 8.0, 200 mM NaCl, 1 mM TCEP, 2% glycerol

Chain of Alexa488-labeled VAMP2 E78C (GST-cleaved) (rat) (P63045 1-96 E78C): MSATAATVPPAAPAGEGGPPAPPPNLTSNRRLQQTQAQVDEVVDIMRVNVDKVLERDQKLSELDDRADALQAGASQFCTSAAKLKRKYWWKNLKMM
Chain of HL-Munc18c (mouse) (Q60770 whole entry): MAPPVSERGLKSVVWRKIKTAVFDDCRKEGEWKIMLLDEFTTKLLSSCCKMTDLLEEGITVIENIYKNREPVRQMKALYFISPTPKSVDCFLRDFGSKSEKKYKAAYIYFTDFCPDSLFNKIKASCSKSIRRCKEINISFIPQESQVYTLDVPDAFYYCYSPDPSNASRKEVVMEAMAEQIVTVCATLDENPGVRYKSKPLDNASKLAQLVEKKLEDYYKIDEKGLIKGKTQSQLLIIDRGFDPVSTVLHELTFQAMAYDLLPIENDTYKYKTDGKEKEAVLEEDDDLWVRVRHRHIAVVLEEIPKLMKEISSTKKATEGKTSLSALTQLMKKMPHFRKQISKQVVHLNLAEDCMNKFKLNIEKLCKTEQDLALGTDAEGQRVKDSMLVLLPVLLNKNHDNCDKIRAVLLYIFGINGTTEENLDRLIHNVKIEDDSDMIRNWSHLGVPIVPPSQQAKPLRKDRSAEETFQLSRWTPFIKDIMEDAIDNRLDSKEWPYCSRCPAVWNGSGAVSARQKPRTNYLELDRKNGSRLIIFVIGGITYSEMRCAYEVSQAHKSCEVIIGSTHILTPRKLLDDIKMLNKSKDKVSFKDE

| Kd [1] [nM] | koff [1] [s⁻¹] | kon [1] [M⁻¹ s⁻¹] | kobs of SNARE complex formation with m13 [2] [s⁻¹] | kobs of SNARE complex formation with m13 [3] [s⁻¹] | Substance |
| --- | --- | --- | --- | --- | --- |
| 72 | 0.022 | 300000 | – | – | Sx4_(1-275) (de-tagged) (from UniProt Q08850 1-275) (domain or fragment) |
| 31 | 0.009 | 290000 | – | – | Sx4_(1-275)-T4L (de-tagged) (from UniProt Q08850 1-275; P00720 1-164) |
| – | – | – | 0.00049 | 0.00048 | Sx4_(30-275)-His (from UniProt Q08850 30-275) (domain or fragment) |
| – | – | – | 0.00048 | 0.0005 | Sx4_(30-275)-T4L-His (from UniProt Q08850 30-275; P00720 1-164) |
